Source: publication PMC9620470 (Cell chemical biology, 2022)

Target: EPHA4-Flag protein purified from transfected 293FT cells (human, UniProt P54764 20-986)
Experiment: pull-down

EPHA4-Flag protein purified from transfected 293FT cells, sequence (P54764 20-986): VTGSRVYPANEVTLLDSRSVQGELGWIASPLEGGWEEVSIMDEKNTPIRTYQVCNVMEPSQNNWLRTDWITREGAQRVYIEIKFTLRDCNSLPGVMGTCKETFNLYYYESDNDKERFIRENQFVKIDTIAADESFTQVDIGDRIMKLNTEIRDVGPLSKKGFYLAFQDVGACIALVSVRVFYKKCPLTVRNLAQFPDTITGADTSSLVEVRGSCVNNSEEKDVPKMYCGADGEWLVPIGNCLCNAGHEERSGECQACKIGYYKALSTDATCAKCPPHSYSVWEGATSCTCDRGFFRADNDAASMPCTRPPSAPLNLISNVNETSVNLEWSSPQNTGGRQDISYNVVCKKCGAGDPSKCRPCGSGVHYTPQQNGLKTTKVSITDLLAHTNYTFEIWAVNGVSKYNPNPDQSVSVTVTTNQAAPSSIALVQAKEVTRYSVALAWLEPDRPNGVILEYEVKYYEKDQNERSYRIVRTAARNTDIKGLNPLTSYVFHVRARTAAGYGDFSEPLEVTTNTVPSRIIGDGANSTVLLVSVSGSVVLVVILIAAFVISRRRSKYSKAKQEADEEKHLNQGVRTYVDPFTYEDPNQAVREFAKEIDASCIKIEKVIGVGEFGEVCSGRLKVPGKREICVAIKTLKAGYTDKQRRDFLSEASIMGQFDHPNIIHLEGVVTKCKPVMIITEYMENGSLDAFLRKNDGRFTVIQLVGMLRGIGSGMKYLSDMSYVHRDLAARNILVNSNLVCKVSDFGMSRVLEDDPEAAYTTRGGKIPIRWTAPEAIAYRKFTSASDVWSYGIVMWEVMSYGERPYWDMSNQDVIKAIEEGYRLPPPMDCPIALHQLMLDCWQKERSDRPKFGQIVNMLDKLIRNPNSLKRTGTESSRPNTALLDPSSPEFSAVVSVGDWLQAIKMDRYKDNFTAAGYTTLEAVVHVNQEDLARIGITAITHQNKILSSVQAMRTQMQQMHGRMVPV

binding result | Binder
binds | GST-GMPR, bacterially purified (enzyme, human) MPRIDADLKLDFKDVLLRPKRSSLKSRAEVDLERTFTFRNSKQTYSGIPIIVANMDTVGTFEMAAVMSQHSMFTAIHKHYSLDDWKLFATNHPECLQNVAVSSGSGQNDLEKMTSILEAVPQVKFICLDVANGYSEHFVEFVKLVRAKFPEHTIMAGNVVTGEMVEELILSGADIIKVGVGPGSVCTTRTKTGVGYPQLSAVIECADSAHGLKGHIISDGGCTCPGDVAKAFGAGADFVMLGGMFSGHTECAGEVFERNGRKLKLFYGMSSDTAMNKHAGGVAEYRASEGKTVEVPYKGDVENTILDILGGLRSTCTYVGAAKLKELSRRATFIRVTQQHNTVFS
binds | GST-GMPR^Y267F, bacterially purified (enzyme, human) MPRIDADLKLDFKDVLLRPKRSSLKSRAEVDLERTFTFRNSKQTYSGIPIIVANMDTVGTFEMAAVMSQHSMFTAIHKHYSLDDWKLFATNHPECLQNVAVSSGSGQNDLEKMTSILEAVPQVKFICLDVANGYSEHFVEFVKLVRAKFPEHTIMAGNVVTGEMVEELILSGADIIKVGVGPGSVCTTRTKTGVGYPQLSAVIECADSAHGLKGHIISDGGCTCPGDVAKAFGAGADFVMLGGMFSGHTECAGEVFERNGRKLKLFFGMSSDTAMNKHAGGVAEYRASEGKTVEVPYKGDVENTILDILGGLRSTCTYVGAAKLKELSRRATFIRVTQQHNTVFS
